The values below come from patent US20240100176A1 (Eli Lilly, published 2024).

Experiment [1] deals with T1, IL-4Rα (target of the affinity engineering of Ab10; form not stated) (UniProt P24394 26-232, limits assumed).
T1 sequence (looked up): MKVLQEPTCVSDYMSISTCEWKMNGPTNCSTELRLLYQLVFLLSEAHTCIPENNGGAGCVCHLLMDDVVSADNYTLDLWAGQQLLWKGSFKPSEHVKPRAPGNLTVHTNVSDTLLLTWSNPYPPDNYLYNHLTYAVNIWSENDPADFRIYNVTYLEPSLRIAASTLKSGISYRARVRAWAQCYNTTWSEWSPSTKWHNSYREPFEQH
Kind of experiment: affinity during CDR mutagenesis of Ab10 (engineered as a Fab); method and antigen form not stated; order of magnitude only.

Experiment [2] has as its target T2, human IL-4Rα on cells (human PBMC B cells and CD4+ T cells, Daudi cells, HEK-Blue IL-4/IL-13 cells, myeloid … (human, UniProt P24394 26-825)).
T2 sequence: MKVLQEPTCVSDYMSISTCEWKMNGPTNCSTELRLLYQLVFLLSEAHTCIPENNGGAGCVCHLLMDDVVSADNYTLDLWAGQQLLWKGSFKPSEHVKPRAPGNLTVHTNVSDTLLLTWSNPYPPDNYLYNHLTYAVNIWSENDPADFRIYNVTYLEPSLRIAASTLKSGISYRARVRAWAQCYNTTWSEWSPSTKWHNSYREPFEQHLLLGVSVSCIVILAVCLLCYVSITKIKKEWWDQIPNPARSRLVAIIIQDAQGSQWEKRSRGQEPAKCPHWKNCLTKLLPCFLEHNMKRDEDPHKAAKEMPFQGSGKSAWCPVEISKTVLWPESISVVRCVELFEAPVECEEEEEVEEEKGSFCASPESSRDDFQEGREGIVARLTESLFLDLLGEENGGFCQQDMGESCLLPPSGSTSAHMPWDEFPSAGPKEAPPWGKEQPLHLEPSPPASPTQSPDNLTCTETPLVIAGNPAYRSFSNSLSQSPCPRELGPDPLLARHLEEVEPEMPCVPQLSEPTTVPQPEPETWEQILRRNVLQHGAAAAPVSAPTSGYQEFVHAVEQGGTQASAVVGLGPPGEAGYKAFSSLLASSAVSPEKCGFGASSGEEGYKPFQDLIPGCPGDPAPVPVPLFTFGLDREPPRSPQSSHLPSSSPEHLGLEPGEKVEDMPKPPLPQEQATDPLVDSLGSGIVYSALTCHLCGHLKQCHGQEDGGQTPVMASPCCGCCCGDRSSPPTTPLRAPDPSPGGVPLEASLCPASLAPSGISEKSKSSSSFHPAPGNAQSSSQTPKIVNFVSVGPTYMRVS
As to the kind of experiment: flow cytometry on human PBMCs, B cells, Alexa Fluor 647 labelled antibody. As to the method: (§1) Example 3b. Binding to B cells and T cells: Binding of the exemplified anti-human IL-4Rα antibodies to B cells and T cells was tested in a Fluorescence Activated Cell Sorting (FACS) assay. […] Freshly isolated cells PBMCs were resuspended at 2×10⁶ cells/mL and allowed to rest for 15 minutes at room temperature, then plated at 100 μL/well into a round bottom 96-well plate (COSTAR®) and washed with FACS buffer (PBS containing 2% fetal bovine serum from Corning®). Exemplified anti-human IL-4Rα antibodies and the respective control IgG antibodies conjugated to Alexa Fluor® 647 according to manufacturer's protocol (Thermo Fisher Scientific) were added to the wells at 66.67 nM and diluted 4-fold in duplicate. Equivalent volume of 2× antibody cocktail containing: Human TruStain FcX™. FITC anti-human CD3 Antibody, Alexa Fluor® 700 anti-human CD4 Antibody (all from Biolegend®) and CD20 Monoclonal Antibody (2H7), PerCP-Cyanine5.5 (Thermo Fisher Scientific) was then added to the wells. Cells were incubated at 4° C. for 30 minutes, washed twice with FACS buffer and resuspended in a final volume of 100 μL FACS buffer. Viability dye, Sytox™ blue (Thermo Fisher Scientific), was added and the samples were analyzed via a flow cytometer (LSRFortessa™ X-20; BD BIOSCIENCES). Data analysis was performed using FlowJo software and statistical analysis was performed using GraphPad Prism 9. […]
For orientation: Flow cytometry measures light scatter and fluorescence of single cells or particles in a stream.

Experiment [3] deals with T2, human IL-4Rα on cells (human PBMC B …). As to the kind of experiment: flow cytometry on human PBMCs, CD20 B cells, Alexa Fluor 647 labelled antibody, percent IL-4Rα positive cells. As to the method:
as §1

Experiment [4] shares this target. Kind of experiment: cell-based or functional assay.
The target of experiment [5] is T3, human FcγRI (CD64) extracellular domain (human, UniProt P12314 16-292).
T3 construct: extracellular domain
T3 sequence (P12314 16-292): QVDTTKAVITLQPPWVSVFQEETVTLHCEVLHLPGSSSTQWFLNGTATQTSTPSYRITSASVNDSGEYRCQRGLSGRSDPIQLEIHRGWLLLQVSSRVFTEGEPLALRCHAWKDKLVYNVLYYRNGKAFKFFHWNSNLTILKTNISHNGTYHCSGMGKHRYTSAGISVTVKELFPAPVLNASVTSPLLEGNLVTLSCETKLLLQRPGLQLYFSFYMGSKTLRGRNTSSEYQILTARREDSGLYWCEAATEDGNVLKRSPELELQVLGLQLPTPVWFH
Kind of experiment: SPR (Biacore), antibody captured on protein A, FcγR ECD as analyte, 25 °C. Here is the method:
Unreacted sites were blocked with a 7 minute injection of ethanolamine at 10 μL/minute. Injections of 2×10 μL of glycine, pH 1.5, was used to remove any noncovalently associated protein. Running buffer was 1×HBS-EP+(TEKNOVA, P/N H8022). The FcγR extracellular domains (ECDs)-FcγRI (CD64), FcγRIIA_131R, and FcγRIIA_131H (CD32a), FcγRIIIA_158V, FcγRIIIA_158F (CD16a), and FcγRIIb (CD32b) were produced from stable CHO cell expression and purified using IgG Sepharose and size exclusion chromatography. For FcγRI binding, antibodies were diluted to […] in running buffer, and approximately 150 RU of each antibody was captured in FCs 2 through 4 (RU captured). FC1 was the reference FC, therefore no antibody was captured in FC1. […] Duplicate injections of each concentration were injected over all FCs at 40 μL/minute for 120 seconds followed by a 1200 second dissociation phase. Regeneration was performed by injecting 15 μL of 10 mM glycine, pH 1.5, at 30 μL/minute over all FCs. […] The affinity (KD) was calculated using either steady state equilibrium analysis with the Scrubber 2 Biacore Evaluation Software or a “1:1 (Langmuir) binding” model in BIA Evaluation. […] The affinity (KD) was calculated using the steady state equilibrium analysis with the Scrubber 2 Biacore Evaluation Software. […]
On the technique in general: Surface plasmon resonance follows binding to a sensor surface in real time, without labels.

Experiment [6] deals with T4, human FcγRIIb (CD32b) extracellular domain (human, UniProt P31994 43-217).
T4 construct: extracellular domain
T4 sequence (looked up): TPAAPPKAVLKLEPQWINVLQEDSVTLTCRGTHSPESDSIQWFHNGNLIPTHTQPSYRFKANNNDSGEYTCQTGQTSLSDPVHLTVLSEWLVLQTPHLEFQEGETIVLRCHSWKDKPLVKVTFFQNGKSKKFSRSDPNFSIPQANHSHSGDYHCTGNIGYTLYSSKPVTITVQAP
As to the kind of experiment: SPR (Biacore), antibody captured on protein A, FcγR ECD as analyte, steady state, 25 °C. As to the method: (§2) Unreacted sites were blocked with a 7 minute injection of ethanolamine at 10 μL/minute. Injections of 2×10 μL of glycine, pH 1.5, was used to remove any noncovalently associated protein. Running buffer was 1×HBS-EP+(TEKNOVA, P/N H8022). The FcγR extracellular domains (ECDs)-FcγRI (CD64), FcγRIIA_131R, and FcγRIIA_131H (CD32a), FcγRIIIA_158V, FcγRIIIA_158F (CD16a), and FcγRIIb (CD32b) were produced from stable CHO cell expression and purified using IgG Sepharose and size exclusion chromatography. For FcγRI binding, antibodies were diluted to […] in running buffer, and approximately 150 RU of each antibody was captured in FCs 2 through 4 (RU captured). FC1 was the reference FC, therefore no antibody was captured in FC1. […] Duplicate injections of each concentration were injected over all FCs at 40 μL/minute for 120 seconds followed by a 1200 second dissociation phase. Regeneration was performed by injecting 15 μL of 10 mM glycine, pH 1.5, at 30 μL/minute over all FCs. Reference-subtracted data was collected as FC2 FC1, FC3-FC1, and FC4-FC1 and the measurements were obtained at 25° C. The affinity (KD) was calculated using either steady state equilibrium analysis with the Scrubber 2 Biacore Evaluation Software or a “1:1 (Langmuir) binding” model in BIA Evaluation. For FcγRIIa, FcγRIIb, and FcγRIIIa binding, antibodies were diluted to 5 μg/mL in running buffer, and approximately 500 RU of each antibody was captured in FCs 2 through 4). FC1 was the reference FC. […] Duplicate injections of each concentration were injected over all FCs at 40 μL/minute for 60 seconds followed by a 120 second dissociation phase. Regeneration was performed by injecting 15 μL of 10 mM glycine, pH 1.5, at 30 μL/minute over all FCs. Reference-subtracted data was collected as FC2-FC1, FC3-FC1, and FC4-FC1, and the measurements were obtained at 25° C. The affinity (KD) was calculated using the steady state equilibrium analysis with the Scrubber 2 Biacore Evaluation Software. Each receptor was assayed at least two times.

Experiment [7] concerns the target T5, human FcγRIIA_131H (CD32a) extracellular domain (human, UniProt P12318 34-217).
T5 construct: extracellular domain
T5 sequence (looked up): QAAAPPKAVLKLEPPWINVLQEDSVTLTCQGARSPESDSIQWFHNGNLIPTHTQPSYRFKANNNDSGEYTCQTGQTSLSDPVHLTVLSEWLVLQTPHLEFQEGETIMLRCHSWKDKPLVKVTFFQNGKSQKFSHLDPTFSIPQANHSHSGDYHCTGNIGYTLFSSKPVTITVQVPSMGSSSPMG
The description is as above. Here is the method:
as §2

Experiment [8] has as its target T2, human IL-4Rα on cells (human PBMC B …). As to the kind of experiment: cell-based or functional assay. The source holds these as a separate data set.
The target is the same in experiment [9]. As to the kind of experiment: flow cytometry on human PBMCs, CD4-positive T cells, Alexa Fluor 647 labelled antibody, percent IL-4Rα positive cells. As to the method: as §1

B1: Ab10 variant with the LCDR3 substitutions H91W, N92S (antibody, V domains shown)
VH: QVQLVESGGGLVQPGGSLRLSCAASGFTFSISSMNWVRQAPGKGLEWVSYISRATGAIYYADSVKGRFTISRNNAKNSLYLQMNSLRDEDTAVYYCAREPVFDYWGQGTLVTVSS
VL: DIQMTQSPSAMSASVGDRVTITCRASQGISNYLAWFQQKPGKVPTRLIYAASSLQSGVPSRFSGSGSGTEFTLTISSLQPEDFATYYCLQWSSYPRTFGQGTKVEIK
notes: also called the resulting antibody
Consider B1, for which the Kd in experiment [1] was ~0.01 nM.

B2: anti-human IL-4Rα antibody Ab7 (antibody, human IgG1, kappa)
heavy: not shown
light: DIQMTQSPSAMSASVGDRVTITCRASQDISNYLAWFQQKPGKVPTRLIYAASSLQSGVPSRFSGSGSGTEFTLTISSLQPEDFATYYCLQWSSYPRTFGQGTKVEIKRTVAAPSVFIFPPSDEQLKSGTASVVCLLNNFYPREAKVQWKVDNALQSGNSQESVTEQDSKDSTYSLSSTLTLSKADYEKHKVYACEVTHQGLSSPVTKSFNRGEC
notes: Human IgG1 backbone
For the molecule B2, the results for the EC50 in experiment [2], in experiment [3] and in experiment [9] were 0.27 nM, 0.14 nM and 28.7 nM, respectively. Besides, the “IL-4 IC50 (nM): inhibition of IL-4 induced SEAP activity in HEK-Blue IL-4R and IL-13R expressing cells” value in experiment [4] amounted to 0.07 nM. For the same molecule, the “IL-13 IC50 (nM): inhibition of IL-13 induced SEAP activity in HEK-Blue IL-4R and IL-13R expressing cells” value in experiment [4] is 0.51 nM. Moreover, the figures for the Kd in experiment [5], in experiment [6] and in [7] were 0.0428 nM, 3.02 µM and 1240 nM, respectively. Moreover, the “Inhibition of IL-4 induced B cell proliferation, IC50” value in experiment [8] is 0.95 nM.

The term Kd denotes the concentration at which binding is half-saturated. Usually EC50 stands for the midpoint of the concentration-response curve.
